Key:
[1] = target: guinea pig whole molecule IgG (guinea pig); assay: SPR; IgG amine coupled to CM5 chip, construct flowed at 750 ug/ml; end-point RU of association phase
[2] = target: human whole molecule IgG (human); assay: as above
[3] = target: mouse whole molecule IgG (mouse); assay: as above
human IgG Fc (human) [4] = assay: as above
[5] = target: rabbit whole molecule IgG (rabbit); assay: as above
[6] = target: human whole molecule IgG (human); assay: SPR; IgG amine-coupled to CM5 chip, construct flowed at 750 ug/ml; end-point RU of association phase
human IgG Fc (human) [7] = assay: as above
[8] = target: rabbit whole molecule IgG (rabbit); assay: as above
[9] = target: human whole molecule IgG (human); assay: as above; remark: listed apart in the source
human IgG Fc (human) [10] = assay: as above; remark: listed apart in the source
[11] = target: rabbit whole molecule IgG (rabbit); assay: as above; remark: listed apart in the source

Substance	RU Post Association [1]	RU Post Association [2]	RU Post Association [3]	RU Post Association (human IgG Fc (human) [4])	RU Post Association [5]	RU Post Association [6]	RU Post Association (human IgG Fc (human) [7])	RU Post Association [8]	RU Post Association [9]	RU Post Association (human IgG Fc (human) [10])	RU Post Association [11]
gE-2t 405 (from UniProt P89475 21-402)	5 RU	8 RU	4 RU	5 RU	6 RU						
gE-2t 414/gI-2t 262 (from UniProt P89475 21-411; P06764 21-262)	4 RU	79 RU	5 RU	53 RU	75 RU						
gE-2t 417/gI-2t 262 (from UniProt P89475 21-414; P06764 21-262)	9 RU	52 RU	10 RU	41 RU	46 RU	53 RU	43 RU	45 RU	133 RU	98 RU	138 RU
gD-2t 339 (from UniProt Q69467 26-339)	2 RU	2 RU	4 RU	4 RU	11 RU	3 RU	1 RU	2 RU	4 RU	2 RU	1 RU
gE-2t 24-405 (from UniProt P89475 23-402)	5 RU	7 RU	4 RU	8 RU	6 RU						
gE-2t 24-405/gI-2t 262 (from UniProt P89475 23-402; P06764 21-262)	8 RU	136 RU	6 RU	95 RU	142 RU						
gE-2t 405/gI-2t 262 (from UniProt P89475 21-402; P06764 21-262)	9 RU	142 RU	8 RU	100 RU	165 RU						
gE-1t 419/gI-1t 269 (from UniProt P04488 21-419; P06487 21-276)	19 RU	232 RU	11 RU	216 RU	195 RU						
